Measurements as given in PMC9200065.

Molecular target: T1, MBP-GLD-1(135-336) WT (C. elegans, UniProt Q17339 135-336)
T1 sequence: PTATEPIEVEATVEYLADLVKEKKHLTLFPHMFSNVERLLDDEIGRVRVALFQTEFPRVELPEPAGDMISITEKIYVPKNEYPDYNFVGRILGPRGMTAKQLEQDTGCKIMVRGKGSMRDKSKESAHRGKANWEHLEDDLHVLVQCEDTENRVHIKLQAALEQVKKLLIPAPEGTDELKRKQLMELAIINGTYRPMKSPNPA
Assay: EMSA

UUUUUCUUAUUCUAGACUAAUAUUGUAAGCU (ssRNA) [glp-1 3'UTR fragment]
binding result: binds
